In US20250376534A1 (ORNA THERAPEUTICS, published 2025):
Where no end group is shown, it is not given here.

Assays:
[1] = target: T1, BCMA-41BBζ CAR encoded by circular RNA formed from DNA Template A; assay: flow cytometry, live T cells 24 h after electroporation with 50 ng circRNA per 0.1x10^6 T cells; first of two values
T1 construct: also called Construct A
Text: (§1) Donor T cells were thawed and activated with anti-CD3/CD28 solutions. Three days after activation, the cells were washed. […] Circular RNAs were formed from DNA templates present in Table 28 and/or 30. The cells were given a commercially available soluble BCMA detection reagent containing R-phycoerythrin (PE) fluorophore (e.g., from AcroBiosystems, Delaware), anti-Whitlow PE detection reagent, or anti-G4S linker detection reagent (e.g., G4S-AF647).

[2] = target: T2, CD19-CD28ζ CAR encoded by circular RNA formed from DNA Template F; assay: as above
T2 construct: also called Construct F
T2 sequence (chain, as listed by the source limits assumed): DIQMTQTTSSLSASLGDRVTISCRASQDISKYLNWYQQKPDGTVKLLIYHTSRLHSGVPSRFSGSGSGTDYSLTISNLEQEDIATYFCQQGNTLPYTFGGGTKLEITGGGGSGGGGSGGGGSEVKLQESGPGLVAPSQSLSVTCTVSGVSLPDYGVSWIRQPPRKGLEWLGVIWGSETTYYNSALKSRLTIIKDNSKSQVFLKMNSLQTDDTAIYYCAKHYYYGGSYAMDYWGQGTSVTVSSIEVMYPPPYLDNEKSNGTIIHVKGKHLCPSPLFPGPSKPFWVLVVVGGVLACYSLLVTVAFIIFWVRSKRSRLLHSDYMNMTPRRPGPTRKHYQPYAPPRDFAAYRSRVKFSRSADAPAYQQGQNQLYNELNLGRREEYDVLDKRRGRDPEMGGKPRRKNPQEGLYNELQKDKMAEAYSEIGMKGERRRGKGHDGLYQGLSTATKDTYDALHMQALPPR
Text: as §1

[3] = target: T3, BCMA CAR encoded by circular RNA formed from DNA Template G; assay: as above
T3 construct: also called Construct G
T3 sequence (chain, as listed by the source limits assumed): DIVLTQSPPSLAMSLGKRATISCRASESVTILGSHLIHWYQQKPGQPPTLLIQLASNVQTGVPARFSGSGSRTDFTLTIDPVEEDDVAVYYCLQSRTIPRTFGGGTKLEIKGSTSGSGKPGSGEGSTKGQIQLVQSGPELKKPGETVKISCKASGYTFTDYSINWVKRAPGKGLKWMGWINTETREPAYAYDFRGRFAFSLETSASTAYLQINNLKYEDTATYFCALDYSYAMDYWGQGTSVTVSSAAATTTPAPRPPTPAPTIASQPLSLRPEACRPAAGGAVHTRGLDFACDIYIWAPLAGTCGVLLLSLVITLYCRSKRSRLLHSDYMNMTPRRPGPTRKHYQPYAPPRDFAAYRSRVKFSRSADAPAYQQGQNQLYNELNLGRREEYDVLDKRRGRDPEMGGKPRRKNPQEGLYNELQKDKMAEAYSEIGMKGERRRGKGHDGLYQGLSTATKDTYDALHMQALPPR
Text: as §1

[4] = target: T4, BCMA CAR encoded by circular RNA formed from DNA Template H; assay: as above
T4 construct: also called Construct H
T4 sequence (chain, as listed by the source limits assumed): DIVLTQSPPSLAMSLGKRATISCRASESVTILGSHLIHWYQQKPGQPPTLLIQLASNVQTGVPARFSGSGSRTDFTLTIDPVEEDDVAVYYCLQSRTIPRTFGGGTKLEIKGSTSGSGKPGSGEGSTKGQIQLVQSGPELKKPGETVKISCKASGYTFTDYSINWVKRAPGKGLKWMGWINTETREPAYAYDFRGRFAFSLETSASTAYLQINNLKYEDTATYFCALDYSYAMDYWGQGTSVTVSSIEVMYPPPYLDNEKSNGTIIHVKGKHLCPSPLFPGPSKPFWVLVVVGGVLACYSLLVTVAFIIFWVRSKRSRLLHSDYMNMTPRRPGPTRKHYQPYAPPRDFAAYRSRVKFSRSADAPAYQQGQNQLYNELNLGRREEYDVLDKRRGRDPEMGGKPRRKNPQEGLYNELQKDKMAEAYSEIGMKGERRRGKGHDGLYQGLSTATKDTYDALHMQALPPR
Text: as §1

[5] = target: T5, BCMA CAR encoded by circular RNA formed from DNA Template I; assay: as above
T5 construct: also called Construct I
T5 sequence (chain, as listed by the source limits assumed): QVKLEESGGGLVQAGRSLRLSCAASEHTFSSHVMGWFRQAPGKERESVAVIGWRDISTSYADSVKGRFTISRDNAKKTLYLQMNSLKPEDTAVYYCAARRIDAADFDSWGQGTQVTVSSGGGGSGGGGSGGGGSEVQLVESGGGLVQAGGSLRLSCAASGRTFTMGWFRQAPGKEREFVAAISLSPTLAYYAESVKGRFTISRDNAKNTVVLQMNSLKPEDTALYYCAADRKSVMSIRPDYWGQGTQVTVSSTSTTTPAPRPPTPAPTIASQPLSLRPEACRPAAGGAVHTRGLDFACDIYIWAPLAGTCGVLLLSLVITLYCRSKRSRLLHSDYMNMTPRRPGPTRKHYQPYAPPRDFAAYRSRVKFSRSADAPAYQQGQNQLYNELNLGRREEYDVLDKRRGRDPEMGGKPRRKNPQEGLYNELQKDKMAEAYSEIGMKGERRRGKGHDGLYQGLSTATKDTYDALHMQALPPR
Text: as §1

[6] = target: T6, BCMA CAR encoded by circular RNA formed from DNA Template J; assay: as above
T6 construct: also called Construct J
T6 sequence (chain, as listed by the source limits assumed): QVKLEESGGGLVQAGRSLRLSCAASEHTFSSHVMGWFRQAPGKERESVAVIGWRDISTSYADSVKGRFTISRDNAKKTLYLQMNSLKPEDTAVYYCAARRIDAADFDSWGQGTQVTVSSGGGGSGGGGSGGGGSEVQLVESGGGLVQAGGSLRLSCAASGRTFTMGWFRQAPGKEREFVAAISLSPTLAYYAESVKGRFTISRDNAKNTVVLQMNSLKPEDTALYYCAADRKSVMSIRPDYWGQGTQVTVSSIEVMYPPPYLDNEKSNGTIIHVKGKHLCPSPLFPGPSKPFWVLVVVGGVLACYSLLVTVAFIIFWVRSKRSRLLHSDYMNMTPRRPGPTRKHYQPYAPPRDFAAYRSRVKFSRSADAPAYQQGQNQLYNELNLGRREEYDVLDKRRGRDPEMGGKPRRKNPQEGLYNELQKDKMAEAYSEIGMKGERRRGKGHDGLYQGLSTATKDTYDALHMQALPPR
Text: as §1

[7] = target: T1, BCMA-41BBζ CAR encoded by circular RNA …; assay: flow cytometry, live T cells 24 h after electroporation with 50 ng circRNA per 0.1x10^6 T cells; second of two values
Text: as §1

[8] = target: T2, CD19-CD28ζ CAR encoded by circular RNA …; assay: as above
Text: as §1

[9] = target: T3, BCMA CAR encoded by circular RNA formed …; assay: as above
Text: as §1

[10] = target: T4, BCMA CAR encoded by circular RNA formed …; assay: as above
Text: as §1

[11] = target: T5, BCMA CAR encoded by circular RNA formed …; assay: as above
Text: as §1

[12] = target: T6, BCMA CAR encoded by circular RNA formed …; assay: as above
Text: as §1

T1 sequence (chain, as listed by the source): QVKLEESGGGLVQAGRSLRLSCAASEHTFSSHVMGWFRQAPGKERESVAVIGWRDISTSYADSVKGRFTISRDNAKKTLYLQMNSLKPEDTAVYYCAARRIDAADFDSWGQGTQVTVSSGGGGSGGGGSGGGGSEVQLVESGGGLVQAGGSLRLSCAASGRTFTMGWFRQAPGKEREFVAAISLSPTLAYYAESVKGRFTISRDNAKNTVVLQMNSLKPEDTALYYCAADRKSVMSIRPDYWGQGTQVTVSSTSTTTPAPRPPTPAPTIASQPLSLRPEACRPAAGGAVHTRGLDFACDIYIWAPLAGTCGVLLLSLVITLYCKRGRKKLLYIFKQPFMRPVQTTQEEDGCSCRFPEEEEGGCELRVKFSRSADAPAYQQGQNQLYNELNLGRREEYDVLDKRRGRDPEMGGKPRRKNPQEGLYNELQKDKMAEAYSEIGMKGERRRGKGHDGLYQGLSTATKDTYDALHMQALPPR

B1: soluble BCMA detection reagent containing R-phycoerythrin (PE) fluorophore (receptor, UniProt Q02223 1-54, looked up)
chain: MLQMAGQCSQNEYFDSLLHACIPCQLRCSSNTPPLTCQRYCNASVTNSVKGTNA
modifications: cysteine pairing not given here; also: conjugated to R-phycoerythrin (PE) fluorophore, site not given here
notes: also called soluble BCMA-PE; sBCMA-PE
- gMFI [1]: 61500
- gMFI [2]: 71.7
- gMFI [3]: 18200
- gMFI [4]: 57800
- gMFI [5]: 57400
- gMFI [6]: 84700
- gMFI [7]: 66300
- gMFI [8]: 81.5
- gMFI [9]: 18900
- gMFI [10]: 59700
- gMFI [11]: 58000
- gMFI [12]: 93400
